Measured values published in patent US20160074509A1.

Target: OVA323-339 in the context of MHC class II (I-A^b) (mouse; chicken) (UniProt P14434)
Assay: cell-based or functional assay

## T cell receptor of OT-II transgenic CD4+ T cells (TCR)
  proliferation of CFSE-labeled OT-II cells transferred into the footpad one week after immunization with OVA-KFE8D nanofibers (shift in CFSE intensity) (% of transferred cells): 60
  proliferation of adoptively transferred CFSE-labeled OT-II cells in mice immunized with OVA-Q11 or OVA in CFA (shift in CFSE intensity) (% of transferred cells): 95
